Reference: US9175313B2, “Three-dimensional structure of isoprene synthase and its use thereof for generating variants” (Danisco US Inc., priority 2009, dated 2015)
Numbering of substitutions follows the chain as printed. Names and notes keep the numbering of the source. “Also recorded” adds a separate entry of the source.

B1: A453N: P. alba IspS variant A453N; pDW99, strain DW397, SEQ ID NO: 65 (protein)
chain: MEARRSANYEPNSWDYDYLLSSDTDESIEVYKDKAKKLEAEVRREINNEKAEFLTLLELIDNVQRLGLGYRFESDIRGALDRFVSSGGFDAVTKTSLHGTALSFRLLRQHGFEVSQEAFSGFKDQNGNFLENLKEDIKAILSLYEASFLALEGENILDEAKVFAISHLKELSEEKIGKELAEQVNHALELPLHRRTQRLEAVWSIEAYRKKEDANQVLLELAILDYNMIQSVYQRDLRETSRWWRRVGLATKLHFARDRLIESFYWAVGVAFEPQYSDCRNSVAKMFSFVTIIDDIYDVYGTLDELELFTDAVERWDVNAINDLPDYMKLCFLALYNTINEIAYDNLKDKGENILPYLTKAWADLCNAFLQEAKWLYNKSTPTFDDYFGNAWKSSSGPLQLVFAYFAVVQNIKKEEIENLQKYHDTISRPSHIFRLCNDLASASAEIARGETNNSVSCYMRTKGISEELATESVMNLIDETWKKMNKEKLGGSLFAKPFVETAINLARQSHCTYHNGDAHTSPDELTRKRVLSVITEPILPFERENLYFQGLEHHHHHH
B2: T536C: P. alba IspS variant T536C; pDW102, strain DW400, SEQ ID NO: 71 (protein)
chain: B1 chain with N453A, T536C
B3: H515H: SEL member with the wild type residue at site 515 (wild type codon substituted) (protein, UniProt Q50L36 38-595, looked up)
Isoprene synthase, …: CSVSTENVSFTETETEARRSANYEPNSWDYDYLLSSDTDESIEVYKDKAKKLEAEVRREINNEKAEFLTLLELIDNVQRLGLGYRFESDIRGALDRFVSSGGFDAVTKTSLHGTALSFRLLRQHGFEVSQEAFSGFKDQNGNFLENLKEDIKAILSLYEASFLALEGENILDEAKVFAISHLKELSEEKIGKELAEQVNHALELPLHRRTQRLEAVWSIEAYRKKEDANQVLLELAILDYNMIQSVYQRDLRETSRWWRRVGLATKLHFARDRLIESFYWAVGVAFEPQYSDCRNSVAKMFSFVTIIDDIYDVYGTLDELELFTDAVERWDVNAINDLPDYMKLCFLALYNTINEIAYDNLKDKGENILPYLTKAWADLCNAFLQEAKWLYNKSTPTFDDYFGNAWKSSSGPLQLVFAYFAVVQNIKKEEIENLQKYHDTISRPSHIFRLCNDLASASAEIARGETANSVSCYMRTKGISEELATESVMNLIDETWKKMNKEKLGGSLFAKPFVETAINLARQSHCTYHNGDAHTSPDELTRKRVLSVITEPILPFER
B4: D345G: P. alba IspS variant (protein, UniProt Q50L36 38-595, looked up, variant D345G)
Isoprene synthase, …: B3 Isoprene synthase, … with D308G
B5: D345S: P. alba IspS variant (protein, UniProt Q50L36 38-595, looked up, variant D345S)
Isoprene synthase, …: B3 Isoprene synthase, … with D308S
B6: D345T: P. alba IspS variant (protein, UniProt Q50L36 38-595, looked up, variant D345T)
Isoprene synthase, …: B3 Isoprene synthase, … with D308T
B7: D345E: P. alba IspS variant (protein, UniProt Q50L36 38-595, looked up, variant D345E)
Isoprene synthase, …: B3 Isoprene synthase, … with D308E
B8: D345I: P. alba IspS variant (protein, UniProt Q50L36 38-595, looked up, variant D345I)
Isoprene synthase, …: B3 Isoprene synthase, … with D308I
B9: D345N: P. alba IspS variant (protein, UniProt Q50L36 38-595, looked up, variant D345N)
Isoprene synthase, …: B3 Isoprene synthase, … with D308N
B10: D345M: P. alba IspS variant (protein, UniProt Q50L36 38-595, looked up, variant D345M)
Isoprene synthase, …: B3 Isoprene synthase, … with D308M
B11: D345W: P. alba IspS variant (protein, UniProt Q50L36 38-595, looked up, variant D345W)
Isoprene synthase, …: B3 Isoprene synthase, … with D308W
B12: D345A: P. alba IspS variant (protein, UniProt Q50L36 38-595, looked up, variant D345A)
Isoprene synthase, …: B3 Isoprene synthase, … with D308A
B13: D345Y: P. alba IspS variant (protein, UniProt Q50L36 38-595, looked up, variant D345Y)
Isoprene synthase, …: B3 Isoprene synthase, … with D308Y
B14: D345C: P. alba IspS variant (protein, UniProt Q50L36 38-595, looked up, variant D345C)
Isoprene synthase, …: B3 Isoprene synthase, … with D308C
B15: D345V: P. alba IspS variant (protein, UniProt Q50L36 38-595, looked up, variant D345V)
Isoprene synthase, …: B3 Isoprene synthase, … with D308V
B16: D345K: P. alba IspS variant (protein, UniProt Q50L36 38-595, looked up, variant D345K)
Isoprene synthase, …: B3 Isoprene synthase, … with D308K
B17: D345Q: P. alba IspS variant (protein, UniProt Q50L36 38-595, looked up, variant D345Q)
Isoprene synthase, …: B3 Isoprene synthase, … with D308Q
B18: D345L: P. alba IspS variant (protein, UniProt Q50L36 38-595, looked up, variant D345L)
Isoprene synthase, …: B3 Isoprene synthase, … with D308L

Assay: DMAPP assay of site evaluation library (SEL) lysates with ELISA protein quantitation: specific activity ranked as performance index
Assay type: biochemical
Settings: SEL analysis of P. alba IspS
Procedure: 1. Prepared Patch Plates from Glycerol Stock Plates. Using a V&S 96 pin Replication Tool, cultures were patched onto a LB Agar 35 CMP/50 Kan large patch plates from overnight glycerol stock plates. Plates were incubated at 30° C. overnight for 20 to 24 hr. Cultures can be stored at 4° C. for up to a week.
2. Prepared Overnight Growth Plates. 500 mL of LB 35 CMP/50 Kan media were prepared. 300 μL/well of LB 35 CMP/50 Kan media were dispensed into deep 96 well plates (VWR). Using a V&S Replication Tool, the patch inoculum was transferred into deep 96 well plate by touching the tool pins to respective patch and using a circular motion to coat the pins with inoculum. The media was inoculated by dipping the tool then shaking the pin within the well. The overnight growth plates were sealed using a Breathe-Easier Sealing Membrane (Diversified Biotech). The plates were incubated in a Vertiga Shaking Incubator at 30° C. with shaking at 800 rpm overnight for 16 to 18 hr.
3. Prepared Day Growth Plate. Deep 96 well plates were prepared by dispensing 588 μL/well of LB 35 CMP/50 Kan media. Overnight growth plates were removed from the incubator. Overnight cultures were diluted 50-fold and 12 μL of overnight culture were transferred to day growth plates containing 588 μL/well of LB media containing antiobiotics. Overnight growth plates were sealed with new Breathe-Easier Sealing Membranes. Cultures were incubated at 30° C. and 800 rpm for 2.5 hr. Frozen 12 mM IPTG (Sigma) vials were removed from −20° C. and placed in a hood to thaw.
4. OD600 Plate Read of Overnight, Induction, and Harvest. 150 μL 1×PBS were dispensed into 96 well Costar Read Plates (#9017). 50 μL of culture samples were transferred to Read Plates. The OD600 reading was recorded using a Spectramax Plate Reader (Molecular Devices).
5. Induction. Electronic multi-channel pipettors were prepared to dispense 4×20 μL/well of IPTG (if 4× replicates). The multi-dispense option in the electronic pipettor was adjusted if more replicates was necessary. Thawed 12 mM IPTG was poured into 50 mL or 100 mL sterile reservoirs. 20 μL/well of IPTG into each 600 μL/well culture. Overnight growth plates were resealed. Cultures were incubated at 30° C. and 800 rpm for 4 hr. OD600 readings of plates were recorded according instructions above.
6. Harvest. 400 μL of induced culture were transferred to 800 μL Grenier storage plates. Plates were centrifuged at 3300 rpm for 20 min at 2° to 8° C. in a low speed benchtop centrifuge. Supernatants were discarded, pellets should stay in the conical bottom well. Residual supernatants were slapped out onto a paper towel on the benchtop. Plates were sealed with an aluminum foil membrane (Beckman-Coulter). Plates were covered with a plastic plate lid if available. Storage plates were labeled accordingly and stored frozen at −80° C.
Plates containing induced cell pellets were removed from the −80° C. freezer and allowed to thaw on the benchtop for 30 minutes prior to lysis. 200 μl of lysis buffer (50 mM Tris pH 8, 25 mM MgCl2, 74 μg/ml DNase I, 250 U/ml lysozyme, 0.1% Tween 20, 0.5 mM PMSF) was added to each pellet, and plates were incubated on an Eppendorf Thermomixer at 25° C. for 30 minutes at 1200 rpm. After lysis, plates were centrifuged at 3450 rpm for 15 minutes at 4° C. Supernatants were then removed and diluted 10-fold prior to DMAPP assay. 80 μl of the diluted supernatant was added to 20 μl of the DMAPP working stock (20 mM DMAPP in 0.1 M Phosphate Buffer pH 8.2, DMAPP triammonium salt, Cayman chemicals) in a Zinsser glass block. Blocks were then sealed with aluminum sealing membranes, and incubated in Thermomixers at 25° C. for 30 minutes at 450 rpm. Reactions were stopped by incubating blocks on Thermomixers at 70° C. for 12 minutes at 450 rpm. GC-MS was then used for headspace measurements to calculate the amount of isoprene produced by each lysates.
Headspace Assay. […]

Molecule | isoprene synthase activity of variants relative to parent, in words
B1 | improved activity; also recorded: high performing
B2 | improved isoprene synthase activity; also recorded: high performing

Same assay, conditions: primary SEL screen; activity on DMAPP per unit weight relative to the parental molecule (parent = 1)

Molecule | performance index
B3 | 0.81
B4 | 0.55
B5 | 0.41
B6 | 0.56
B7 | 0.61
B8 | 0.73
B9 | 0.58
B10 | 0.43
B11 | 0.46
B12 | 0.50
B13 | 0.84
B14 | 0.43
B15 | 0.51
B16 | 0.69
B17 | 0.56
B18 | 0.65
B1 | 2.99
B2 | 1.48

Assay: Specific activity measurement of purified isoprene synthase variants (4 mM DMAPP, 30 C, GC-MS headspace)
Assay type: biochemical
Settings: 50 mM NaCl, 50 mM Tris pH = 8, 30° C.
Procedure: 1. Initial Purification—Resuspend the pellet in 3 ml of fresh lysis buffer. Break cells by passing them through the French Press using the small cylinder. Centrifuge samples for 1 hour at 30,000×G and collect the supernatant. Retain pellet in order to test for presence of insoluble protein. Pre equilibrate 0.5 mL Ni Sepharose 6 Fast Flow resin (Amersham) in a 20 ml disposable column with 10 mL of Ni wash buffer. Add protein to column and shake for 60 min at 4 C to bind protein. Elute protein with 2.5 mL Ni elution buffer.
2. Buffer Exchange—Equilibrate a PD-10 column (GE Healthcare) with 25 mL of PD-10 buffer. Load protein on to column and elute with 3.5 mL of PD-10 buffer.
10 uL of purified enzyme was incubated with 4 mM DMAPP, 50 mM MgCl2 in a buffer containing 50 mM Tris and 50 mM NaCl (pH=8) to a final volume of 100 uL for 15 min. at 30 C in gas tight 2 mL vials. Reactions were terminated with the addition of 100 uL of […] EDTA, pH=8. Samples were analyzed by GC-MS to determine the concentration of isoprene in the headspace of the vials. All specific activity measurements were performed in triplicate.
Protein concentration was determined by measuring the absorbance of each protein solution at 280 nm on a Helwlett Pachard 8453 UV-Vis spectrophotometer and converting the absorbance to protein concentration using the extinction coefficient as determined on the Expasy website (Gasteiger E., Hoogland C., Gattiker A., Duvaud S., Wilkins M. R., Appel R. D., Bairoch A.; Protein Identification and Analysis Tools on the ExPASy Server; (In) John M. Walker (ed): The Proteomics Protocols Handbook, Humana Press (2005). pp. 571-607). The protein concentrations of isoprene synthase variants assayed for KM and kcat determination were verified by comparative gel electrophoresis of a dilution series of each protein (FIG. 61).

Molecule | S.A.
B1 | 170 ± 30 nmol/mg/min
B2 | 430 ± 10 nmol/mg/min

Same assay, conditions: 50 mM NaCl, 50 mM Tris pH = 8, 30° C., ratio to WT

Molecule | Variant S.A./WT S.A.
B1 | 0.4
B2 | 0.9
